Data as given in US11071755 (CRISPR THERAPEUTICS, dated 2021).

B1: anti-BCMA CAR of CTX-152 (BCMA-1: CD8[signal peptide]-VH-linker-VL-CD8[tm]-CD28[co-stimulatory domain]-CD3z) (other)
chain: QVQLQQSGGGLVQPGGSLKLSCAASGIDFSRYWMSWVRRAPGKGLEWIGEINPDSSTINYAPSLKDKFIISRDNAKNTLYLQMSKVRSEDTALYYCASLYYDYGDAMDYWGQGTSVTVSSGGGGSGGGGSGGGGSGDIVMTQSQRFMTTSVGDRVSVTCKASQSVDSNVAWYQQKPRQSPKALIFSASLRFSGVPARFTGSGSGTDFTLTISNLQSEDLAEYFCQQYNNYPLTFGAGTKLELKSAAAFVPVFLPAKPTTTPAPRPPTPAPTIASQPLSLRPEACRPAAGGAVHTRGLDFACDIYIWAPLAGTCGVLLLSLVITLYCNHRNRSKRSRLLHSDYMNMTPRRPGPTRKHYQPYAPPRDFAAYRSRVKFSRSADAPAYQQGQNQLYNELNLGRREEYDVLDKRRGRDPEMGGKPRRKNPQEGLYNELQKDKMAEAYSEIGMKGERRRGKGHDGLYQGLSTATKDTYDALHMQALPPR
notes: CAR on edited primary human T cells, co-expressed with GFP from a bicistronic 2A mRNA; also called BCMA-1 CAR
B2: anti-BCMA CAR of CTX-154 (BCMA-2: CD8[signal peptide]-VL-linker-VH-CD8[tm]-CD28[co-stimulatory domain]-CD3z) (other)
chain: DIVMTQSQRFMTTSVGDRVSVTCKASQSVDSNVAWYQQKPRQSPKALIFSASLRFSGVPARFTGSGSGTDFTLTISNLQSEDLAEYFCQQYNNYPLTFGAGTKLELKGGGGSGGGGSGGGGSGQVQLQQSGGGLVQPGGSLKLSCAASGIDFSRYWMSWVRRAPGKGLEWIGEINPDSSTINYAPSLKDKFIISRDNAKNTLYLQMSKVRSEDTALYYCASLYYDYGDAMDYWGQGTSVTVSSSAAAFVPVFLPAKPTTTPAPRPPTPAPTIASQPLSLRPEACRPAAGGAVHTRGLDFACDIYIWAPLAGTCGVLLLSLVITLYCNHRNRSKRSRLLHSDYMNMTPRRPGPTRKHYQPYAPPRDFAAYRSRVKFSRSADAPAYQQGQNQLYNELNLGRREEYDVLDKRRGRDPEMGGKPRRKNPQEGLYNELQKDKMAEAYSEIGMKGERRRGKGHDGLYQGLSTATKDTYDALHMQALPPR
notes: CAR on edited primary human T cells, co-expressed with GFP from a bicistronic 2A mRNA; also called BCMA-2 CAR
B3: anti-BCMA CAR of CTX-166 (CD28 co-stimulatory domain) (other)
chain: QVQLVQSGAELKKPGASVKVSCKASGNTLTNYVIHWVRQAPGQRLEWMGYILPYNDLTKYSQKFQGRVTITRDKSASTAYMELSSLRSEDTAVYYCTRWDWDGFFDPWGQGTTVTVSSGGGGSGGGGSGGGGSEIVMTQSPATLSVSPGERASISCRASQSLVHSNGNTHLHWYQQRPGQAPRLLIYSVSNRFSEVPARFSGSGSGTDFTLTISSVESEDFAVYYCSQTSHIPYTFGGGTKLEIKSAAAFVPVFLPAKPTTTPAPRPPTPAPTIASQPLSLRPEACRPAAGGAVHTRGLDFACDIYIWAPLAGTCGVLLLSLVITLYCNHRNRSKRSRLLHSDYMNMTPRRPGPTRKHYQPYAPPRDFAAYRSRVKFSRSADAPAYQQGQNQLYNELNLGRREEYDVLDKRRGRDPEMGGKPRRKNPQEGLYNELQKDKMAEAYSEIGMKGERRRGKGHDGLYQGLSTATKDTYDALHMQALPPR
notes: CAR on edited primary human T cells; also called anti-BCMA (CD28) CAR
B4: anti-BCMA CAR of CTX-166b (4-1BB co-stimulatory domain) (other)
chain: QVQLVQSGAELKKPGASVKVSCKASGNTLTNYVIHWVRQAPGQRLEWMGYILPYNDLTKYSQKFQGRVTITRDKSASTAYMELSSLRSEDTAVYYCTRWDWDGFFDPWGQGTTVTVSSGGGGSGGGGSGGGGSEIVMTQSPATLSVSPGERASISCRASQSLVHSNGNTHLHWYQQRPGQAPRLLIYSVSNRFSEVPARFSGSGSGTDFTLTISSVESEDFAVYYCSQTSHIPYTFGGGTKLEIKSAAAFVPVFLPAKPTTTPAPRPPTPAPTIASQPLSLRPEACRPAAGGAVHTRGLDFACDIYIWAPLAGTCGVLLLSLVITLYCNHRNRKRGRKKLLYIFKQPFMRPVQTTQEEDGCSCRFPEEEEGGCELRVKFSRSADAPAYQQGQNQLYNELNLGRREEYDVLDKRRGRDPEMGGKPRRKNPQEGLYNELQKDKMAEAYSEIGMKGERRRGKGHDGLYQGLSTATKDTYDALHMQALPPR
notes: CAR on edited primary human T cells; also called anti-BCMA (4-1BB) CAR
B5: anti-BCMA CAR of CTX-160b (4-1BB co-stimulatory domain) (other)
chain: EVQLVESGGGLVQPGGSLKLSCAASGIDFSRYWMSWVRQAPGKGLEWIGEINPDSSTINYADSVKGRFTISRDNAKNTLYLQMNLSRAEDTALYYCASLYYDYGDAMDYWGQGTLVTVSSGGGGSGGGGSGGGGSDIQMTQSPSSLSASVGDRVTITCRASQSVDSNVAWYQQKPEKAPKSLIFSASLRFSGVPSRFSGSGSGTDFTLTISSLQPEDFATYYCQQYNSYPLTFGAGTKLEIKSAAAFVPVFLPAKPTTTPAPRPPTPAPTIASQPLSLRPEACRPAAGGAVHTRGLDFACDIYIWAPLAGTCGVLLLSLVITLYCNHRNRKRGRKKLLYIFKQPFMRPVQTTQEEDGCSCRFPEEEEGGCELRVKFSRSADAPAYQQGQNQLYNELNLGRREEYDVLDKRRGRDPEMGGKPRRKNPQEGLYNELQKDKMAEAYSEIGMKGERRRGKGHDGLYQGLSTATKDTYDALHMQALPPR
notes: as for B4
B6: anti-BCMA CAR of CTX-160 (CD28 co-stimulatory domain) (other)
chain: EVQLVESGGGLVQPGGSLKLSCAASGIDFSRYWMSWVRQAPGKGLEWIGEINPDSSTINYADSVKGRFTISRDNAKNTLYLQMNLSRAEDTALYYCASLYYDYGDAMDYWGQGTLVTVSSGGGGSGGGGSGGGGSDIQMTQSPSSLSASVGDRVTITCRASQSVDSNVAWYQQKPEKAPKSLIFSASLRFSGVPSRFSGSGSGTDFTLTISSLQPEDFATYYCQQYNSYPLTFGAGTKLEIKSAAAFVPVFLPAKPTTTPAPRPPTPAPTIASQPLSLRPEACRPAAGGAVHTRGLDFACDIYIWAPLAGTCGVLLLSLVITLYCNHRNRSKRSRLLHSDYMNMTPRRPGPTRKHYQPYAPPRDFAAYRSRVKFSRSADAPAYQQGQNQLYNELNLGRREEYDVLDKRRGRDPEMGGKPRRKNPQEGLYNELQKDKMAEAYSEIGMKGERRRGKGHDGLYQGLSTATKDTYDALHMQALPPR
notes: as for B3

Target: T1, recombinant biotinylated human BCMA (human, UniProt Q02223 1-54, biotinylated)
T1 construct: Soluble labelled reagent, detected with streptavidin-APC; also called recombinant BCMA; biotinylated BCMA
T1 sequence (looked up): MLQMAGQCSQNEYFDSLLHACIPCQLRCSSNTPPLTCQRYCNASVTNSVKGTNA
Assay: flow cytometry, recombinant BCMA on CAR-T cells
Protocol: Allogeneic anti-BCMA CAR T cells were generated as described above. Anti-BCMA CAR expression was measured by determining the percent of cells that bound biotinylated BCMA subsequently detected by FACS using streptavidin-APC (FIG. 47).
Figure 48: FIG. 48 is a graph showing anti-BCMA CAR expression. Allogeneic CAR T cells were generated as previously described. Anti-BCMA CAR expression was measured by determining the percent of cells that bound biotinylated recombinant human BCMA subsequently detected by FACS using streptavidin-APC. […] CAR constructs were evaluated for their ability to kill RPMI-8226 cells. […] Following enrichment/purification, greater than 99.5% of the gene edited cells are TCR negative.

Binder | binding result
B1 | binds
B2 | binds

Target: T1, recombinant biotinylated human BCMA
Assay: flow cytometry, biotinylated BCMA on CAR-T cells detected with streptavidin-APC
Protocol: Allogeneic TRAC−/B2M−/anti-BCMA CAR T+ cells were generated, as described above, having either a CD28 co-stimulatory domain (encoded by CTX-160 or CTX-166) or a 4-1BB co-stimulatory domain (encoded by CTX160b or CTX166b). Anti-BCMA CAR expression was measured by determining the percent of cells that bound biotinylated BCMA subsequently detected by FACS using streptavidin-APC (FIG. 67). Greater than 60% of the cells expressed the CAR at the cell surface.

Binder | percent of cells that bound biotinylated BCMA
B3 | > 60%
B4 | > 60%
B5 | > 60%
B6 | > 60%
